Experimental data as given in publication PMC8580805 (Biophysical Reviews, 2021).
Several values for one entry are separate records, joined by “and”; a condition that tells them apart may be missing. Identical values can stand only once.

B2: photosynthetic GAPDH B-subunit from spinach (natural protein, UniProt P12860 84-451, looked up)
chain: KLKVAINGFGRIGRNFLRCWHGRKDSPLDVVVVNDSGGVKSATHLLKYDSILGTFKADVKIIDNETFSIDGKPIKVVSNRDPLKLPWAELGIDIVIEGTGVFVDGPGAGKHIQAGAKKVIITAPAKGSDIPTYVVGVNEKDYGHDVANIISNASCTTNCLAPFVKVLDEELGIVKGTMTTTHSYTGDQRLLDASHRDLRRARAAALNIVPTSTGAAKAVSLVLPQLKGKLNGIALRVPTPNVSVVDLVVNIEKVGVTAEDVNNAFRKAAAGPLKGVLDVCDIPLVSVDFRCSDFSSTIDSSLTMVMGGDMVKVVAWYDNEWGYSQRVVDLADLVANKWPGLEGSVASGDPLEDFCKDNPADEECKLYE

Tests used:
[1] = target: insect Toll receptor ectodomain (insect (species not stated)) (UniProt P08953); experiment: biophysical and cellular analysis
[2] = target: the molecule itself; experiment: SEC-SAXS + cryo-EM structure
[3] = target: the molecule itself; experiment: cryo-EM structure
[4] = target: B2; experiment: cryo-EM structure

Chain of insect Toll receptor ectodomain (insect (species not stated)) (P08953 28-807): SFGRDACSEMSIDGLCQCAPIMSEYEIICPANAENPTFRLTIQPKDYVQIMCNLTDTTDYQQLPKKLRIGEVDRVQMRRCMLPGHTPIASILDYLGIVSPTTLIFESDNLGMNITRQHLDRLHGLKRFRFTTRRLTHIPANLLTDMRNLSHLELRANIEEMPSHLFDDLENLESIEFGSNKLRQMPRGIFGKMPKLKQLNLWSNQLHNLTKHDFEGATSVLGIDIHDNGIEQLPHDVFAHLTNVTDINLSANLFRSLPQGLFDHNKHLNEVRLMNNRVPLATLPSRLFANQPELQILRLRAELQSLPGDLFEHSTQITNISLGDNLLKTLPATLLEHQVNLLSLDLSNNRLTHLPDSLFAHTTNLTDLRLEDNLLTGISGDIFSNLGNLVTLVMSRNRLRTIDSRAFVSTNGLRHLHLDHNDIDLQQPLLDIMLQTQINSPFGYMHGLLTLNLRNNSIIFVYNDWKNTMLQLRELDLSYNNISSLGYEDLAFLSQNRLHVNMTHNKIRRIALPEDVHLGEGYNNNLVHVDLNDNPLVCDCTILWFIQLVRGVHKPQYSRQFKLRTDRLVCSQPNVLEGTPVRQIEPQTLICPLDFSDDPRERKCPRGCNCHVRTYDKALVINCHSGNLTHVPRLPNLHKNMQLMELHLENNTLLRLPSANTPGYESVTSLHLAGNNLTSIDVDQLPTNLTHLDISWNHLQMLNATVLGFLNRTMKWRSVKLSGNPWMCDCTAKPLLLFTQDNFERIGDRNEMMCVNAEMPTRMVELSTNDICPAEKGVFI

For “insect cytokine ligand Spatzle (from UniProt P48607 26-326)”, the stoichiometry N (Toll per Spatzle (2:2)) [1] was 1.

B1: photosynthetic AB-GAPDH, A2B2 hetero-tetramer (glyceraldehyde 3-phosphate dehydrogenase) from spinach (complex)
chain 1: KLKVAINGFGRIGRNFLRCWHGRKDSPLDVVVINDTGGVKQASHLLKYDSILGTFDADVKTAGDSAISVDGKVIKVVSDRNPVNLPWGDMGIDLVIEGTGVFVDRDGAGKHLQAGAKKVLITAPGKGDIPTYVVGVNEEGYTHADTIISNASCTTNCLAPFVKVLDQKFGIIKGTMTTTHSYTGDQRLLDASHRDLRRARAACLNIVPTSTGAAKAVALVLPNLKGKLNGIALRVPTPNVSVVDLVVQVSKKTFAEEVNAAFRESADNELKGILSVCDEPLVSIDFRCTDVSSTIDSSLTMVMGDDMVKVIAWYDNEWGYSQRVVDLADIVANKWQ
chain 2: KLKVAINGFGRIGRNFLRCWHGRKDSPLDVVVVNDSGGVKSATHLLKYDSILGTFKADVKIIDNETFSIDGKPIKVVSNRDPLKLPWAELGIDIVIEGTGVFVDGPGAGKHIQAGAKKVIITAPAKGSDIPTYVVGVNEKDYGHDVANIISNASCTTNCLAPFVKVLDEELGIVKGTMTTTHSYTGDQRLLDASHRDLRRARAAALNIVPTSTGAAKAVSLVLPQLKGKLNGIALRVPTPNVSVVDLVVNIEKVGVTAEDVNNAFRKAAAGPLKGVLDVCDIPLVSVDFRCSDFSSTIDSSLTMVMGGDMVKVVAWYDNEWGYSQRVVDLADLVANKWPGLEGSVASGDPLEDFCKDNPADEECKLYE
With B1 the “stoichiometry N” value [2] was 2 A2B2 tetramers per oligomer and 4 A2B2 tetramers per oligomer and 5 A2B2 tetramers per oligomer.

B2: binds [3].

B3: photosynthetic GAPDH A-subunit from spinach (natural protein, UniProt P19866 66-401, looked up)
chain: KLKVAINGFGRIGRNFLRCWHGRKDSPLDVVVINDTGGVKQASHLLKYDSILGTFDADVKTAGDSAISVDGKVIKVVSDRNPVNLPWGDMGIDLVIEGTGVFVDRDGAGKHLQAGAKKVLITAPGKGDIPTYVVGVNEEGYTHADTIISNASCTTNCLAPFVKVLDQKFGIIKGTMTTTHSYTGDQRLLDASHRDLRRARAACLNIVPTSTGAAKAVALVLPNLKGKLNGIALRVPTPNVSVVDLVVQVSKKTFAEEVNAAFRESADNELKGILSVCDEPLVSIDFRCTDVSSTIDSSLTMVMGDDMVKVIAWYDNEWGYSQRVVDLADIVANKWQ
B3: binds [4].
